Patent publication US9062100B2, “Anti-human TROP-2 antibody having anti-tumor activity in vivo” (LIVTECH, INC., dated 2015)

Assays:
[1] = biological target: T1, recombinant protein of the extracellular region of hTROP-2 (human); assay: ELISA of free antibody after equilibration with antigen in solution
T1 sequence: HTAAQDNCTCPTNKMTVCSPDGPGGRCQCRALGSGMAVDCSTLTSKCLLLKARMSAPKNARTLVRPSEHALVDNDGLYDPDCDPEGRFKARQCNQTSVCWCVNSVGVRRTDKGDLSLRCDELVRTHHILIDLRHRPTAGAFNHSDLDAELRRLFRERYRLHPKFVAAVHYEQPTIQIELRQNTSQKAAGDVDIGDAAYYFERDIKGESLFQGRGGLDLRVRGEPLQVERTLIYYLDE

human TROP-2 (hTROP-2) [2] = biological target: T2, human TROP-2 (hTROP-2) (human); assay: FACS on PK-59 cells
T2 chain: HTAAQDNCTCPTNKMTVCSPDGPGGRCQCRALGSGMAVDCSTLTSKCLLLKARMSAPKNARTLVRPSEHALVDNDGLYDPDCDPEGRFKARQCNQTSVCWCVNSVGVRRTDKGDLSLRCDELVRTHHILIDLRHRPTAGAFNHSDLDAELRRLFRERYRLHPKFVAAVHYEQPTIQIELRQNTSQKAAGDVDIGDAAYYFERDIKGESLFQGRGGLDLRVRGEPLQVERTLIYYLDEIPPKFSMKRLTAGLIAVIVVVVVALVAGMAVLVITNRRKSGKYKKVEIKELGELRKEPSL

Table 11 peptide No. 15 = biological target: T3, Table 11 peptide No. 15 (human); assay: PEPSCAN CLIPS peptide ELISA
T3 peptide: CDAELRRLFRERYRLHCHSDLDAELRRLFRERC

Table 11 peptide No. 10 = biological target: T4, Table 11 peptide No. 10 (human); assay: PEPSCAN CLIPS peptide ELISA
T4 peptide: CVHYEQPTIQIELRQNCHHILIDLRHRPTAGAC

Table 11 peptide No. 4 = biological target: T5, Table 11 peptide No. 4 (human); assay: PEPSCAN CLIPS peptide ELISA
T5 peptide: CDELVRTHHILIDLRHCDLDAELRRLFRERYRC

Table 11 peptide No. 16 = Table 11 peptide No. 16 (human); assay: PEPSCAN CLIPS peptide ELISA
Table 11 peptide No. 16 (human), sequence (peptide, as listed by the source): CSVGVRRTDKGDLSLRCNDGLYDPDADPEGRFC

Table 11 peptide No. 26 = biological target: T6, Table 11 peptide No. 26 (human); assay: PEPSCAN CLIPS peptide ELISA
T6 peptide: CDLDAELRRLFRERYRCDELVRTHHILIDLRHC

Table 11 peptide No. 19 = biological target: T7, Table 11 peptide No. 19 (human); assay: PEPSCAN CLIPS peptide ELISA
T7 peptide: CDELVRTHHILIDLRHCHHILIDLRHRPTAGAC

Table 11 peptide No. 11 = biological target: T8, Table 11 peptide No. 11 (human); assay: PEPSCAN CLIPS peptide ELISA
T8 peptide: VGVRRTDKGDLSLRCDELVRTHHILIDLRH

Table 11 peptide No. 21 = biological target: T9, Table 11 peptide No. 21 (human); assay: PEPSCAN CLIPS peptide ELISA
T9 peptide: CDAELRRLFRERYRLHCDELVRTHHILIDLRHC

Table 11 peptide No. 20 = biological target: T10, Table 11 peptide No. 20 (human); assay: PEPSCAN CLIPS peptide ELISA
T10 peptide: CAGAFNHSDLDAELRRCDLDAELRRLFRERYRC

Table 11 peptide No. 9 = biological target: T11, Table 11 peptide No. 9 (human); assay: PEPSCAN CLIPS peptide ELISA
T11 peptide: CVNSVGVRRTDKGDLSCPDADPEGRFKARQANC

Table 11 peptide No. 12 = biological target: T12, Table 11 peptide No. 12 (human); assay: PEPSCAN CLIPS peptide ELISA
T12 peptide: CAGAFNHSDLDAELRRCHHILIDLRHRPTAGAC

Table 11 peptide No. 18 = biological target: T13, Table 11 peptide No. 18 (human); assay: PEPSCAN CLIPS peptide ELISA
T13 peptide: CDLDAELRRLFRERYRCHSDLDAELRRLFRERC

Table 11 peptide No. 13 = biological target: T14, Table 11 peptide No. 13 (human); assay: PEPSCAN CLIPS peptide ELISA
T14 peptide: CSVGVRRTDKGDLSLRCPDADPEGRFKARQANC

Table 11 peptide No. 14 = biological target: T15, Table 11 peptide No. 14 (human); assay: PEPSCAN CLIPS peptide ELISA
T15 peptide: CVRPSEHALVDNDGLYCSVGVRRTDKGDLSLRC

Table 11 peptide No. 23 = biological target: T16, Table 11 peptide No. 23 (human); assay: PEPSCAN CLIPS peptide ELISA
T16 peptide: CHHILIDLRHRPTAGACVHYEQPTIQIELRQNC

Table 11 peptide No. 3 = biological target: T17, Table 11 peptide No. 3 (human); assay: PEPSCAN CLIPS peptide ELISA
T17 peptide: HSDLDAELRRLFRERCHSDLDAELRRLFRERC

Table 11 peptide No. 17 = biological target: T18, Table 11 peptide No. 17 (human); assay: PEPSCAN CLIPS peptide ELISA
T18 peptide: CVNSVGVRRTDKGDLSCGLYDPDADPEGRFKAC

Table 11 peptide No. 7 = biological target: T19, Table 11 peptide No. 7 (human); assay: PEPSCAN CLIPS peptide ELISA
T19 peptide: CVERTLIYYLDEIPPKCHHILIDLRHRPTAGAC

Table 11 peptide No. 1 = biological target: T20, Table 11 peptide No. 1 (human, not fully specified); assay: PEPSCAN CLIPS peptide ELISA
T20 peptide: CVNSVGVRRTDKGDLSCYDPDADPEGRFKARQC

Table 11 peptide No. 22 = biological target: T21, Table 11 peptide No. 22 (human); assay: PEPSCAN CLIPS peptide ELISA
T21 peptide: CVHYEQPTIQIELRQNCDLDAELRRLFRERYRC

Table 11 peptide No. 6 = biological target: T22, Table 11 peptide No. 6 (human); assay: PEPSCAN CLIPS peptide ELISA
T22 peptide: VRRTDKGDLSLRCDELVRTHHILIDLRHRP

Table 11 peptide No. 8 = biological target: T23, Table 11 peptide No. 8 (human); assay: PEPSCAN CLIPS peptide ELISA
T23 peptide: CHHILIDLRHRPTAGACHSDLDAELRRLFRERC

Table 11 peptide No. 2 = biological target: T24, Table 11 peptide No. 2 (human); assay: PEPSCAN CLIPS peptide ELISA
T24 peptide: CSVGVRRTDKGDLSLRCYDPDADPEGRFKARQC

Table 11 peptide No. 24 = Table 11 peptide No. 24 (human); assay: PEPSCAN CLIPS peptide ELISA
Table 11 peptide No. 24 (human), sequence (peptide, as listed by the source): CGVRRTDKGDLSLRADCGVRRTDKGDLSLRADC

Table 11 peptide No. 25 = biological target: T25, Table 11 peptide No. 25 (human); assay: PEPSCAN CLIPS peptide ELISA
T25 peptide: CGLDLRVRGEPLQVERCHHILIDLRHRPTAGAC

human TROP-2 (hTROP-2) [3] = biological target: T2, human TROP-2 (hTROP-2); assay: FACS on BxPC-3 cells

B1: anti-hTROP-2 monoclonal antibody T6-16 (antibody, V domains shown)
VH: EVQLQQSGPELVKPGASVKISCKASGYTFTDYNMHWVKQSHGKNLEWIGYIYPYNGGTGYNQRFKSRATMTVDKSSSTAYMELRSLTSDDSAVYYCAREDYGSSPSYAMDYWGQGTSVIVSS
VL: DVVMTQTPLSLPVSLGDQASISCRSSQSLVHGNGNTYLHWYLQKPGQSPKLLIYKVSNRFSGVPDRFSGSGSGTDFTLKISRVEAEDLGVYFCSQTTHVPTFGSGTKLEIK
With B1 the Kd [1] was 4.3 pM, the “mean fluorescence intensity, times that with PE-labeled anti-mouse IgG only” value (human TROP-2 (hTROP-2) [2]) was 59 times and the “binding of T6-16” value (Table 11 peptide No. 15) was 566. The “binding of T6-16” value (Table 11 peptide No. 10) was 602, the “binding of T6-16” value (Table 11 peptide No. 4) was 713 and the “binding of T6-16” value (Table 11 peptide No. 16) was 559. The “binding of T6-16” value (Table 11 peptide No. 26) was 516, the “binding of T6-16” value (Table 11 peptide No. 19) was 534 and the “binding of T6-16” value (Table 11 peptide No. 11) was 601. For the same binder, the “binding of T6-16” value (Table 11 peptide No. 21) was 527, the “binding of T6-16” value (Table 11 peptide No. 20) was 529 and the “binding of T6-16” value (Table 11 peptide No. 9) was 611. For the same binder, the “binding of T6-16” value (Table 11 peptide No. 12) was 592, the “binding of T6-16” value (Table 11 peptide No. 18) was 534 and the “binding of T6-16” value (Table 11 peptide No. 13) was 585. For the same binder, the “binding of T6-16” value (Table 11 peptide No. 14) was 573, the “binding of T6-16” value (Table 11 peptide No. 23) was 524 and the “binding of T6-16” value (Table 11 peptide No. 3) was 714. The “binding of T6-16” value (Table 11 peptide No. 17) was 553, the “binding of T6-16” value (Table 11 peptide No. 7) was 626 and the “binding of T6-16” value (Table 11 peptide No. 1) was 1070. The “binding of T6-16” value (Table 11 peptide No. 22) was 526, the “binding of T6-16” value (Table 11 peptide No. 6) was 670 and the “binding of T6-16” value (Table 11 peptide No. 8) was 620. The “binding of T6-16” value (Table 11 peptide No. 2) was 786, the “binding of T6-16” value (Table 11 peptide No. 24) was 524 and the “binding of T6-16” value (Table 11 peptide No. 25) was 521. The “mean fluorescence intensity, times that with PE-labeled anti-mouse IgG only” value (human TROP-2 (hTROP-2) [3]) was 25 times.
